The values that follow come from US20110251266, “APTAMER FOR NGF AND USE THEREOF” (Shionogi & Co., Ltd., published 2011).

The labels stand for the following.
B1: SEQ46 aptamer (ssRNA)
RNA: GGGAGAACUUCGACCAGAAGUUUGAAACAAACCCAAAGUUACGCACAAAAUAUGUGCGCAUACAUGGAUCCUCA
modifications: 2'-F all pyrimidines
B2: SEQ66 aptamer (ssRNA)
RNA: GGGAGAACUUCGACCAGAAGUUUGAAAAAAACCCAAAGCAAGCACAACAUUAUGUGCGCAUACAUGGAUCCUCA
modifications: 2'-F all pyrimidines
B3: SEQ45 aptamer (ssRNA)
RNA: GGGAGAACUUCGACCAGAAGAGAAUGAAACUCCCAAAUCAAGGACAAUGAUAUGUGCGCAUACAUGGAUCCUCA
modifications: 2'-F all pyrimidines
B4: SEQ48 aptamer (ssRNA)
RNA: B2 RNA with A29G, A35G, G38A, C39A, A41C, C45U, C48U, U50A
modifications: 2'-F all pyrimidines
B5: SEQ55 aptamer (ssRNA)
RNA: GGGAGAACUUCGACCAGAAGUUUGAAAGAAACCCAAAAAUGAAUGCAACUAUGUGCGCAUACAUGGACCUCA
modifications: 2'-F all pyrimidines
B6: SEQ63 aptamer (ssRNA)
RNA: GGGAGAACUUCGACCAGAAGAUUUGAAAGAAACCCAAACUAAGCACAAAAUAUGUGCGCAUACAUGGAUCCUCA
modifications: 2'-F all pyrimidines
B7: SEQ59 aptamer (ssRNA)
RNA: GGGAGAACUUCGACCAGAAGUCGAAACGUUUGAAAAAAACCCAAGGAGGAUAUGUGCGCAUACAUGGAUCCUCA
modifications: 2'-F all pyrimidines
B8: SEQ50 aptamer (ssRNA)
RNA: GGGAGAACUUCGACCAGAAGUGAAAAAACCUCCCAAUACAAACACAAAAAUAUGUGCGCAUACAUGGAUCCUCA
modifications: 2'-F all pyrimidines
B9: SEQ43 aptamer (ssRNA)
RNA: GGGAGAACUUCGACCAGAAGCUUGAAAAAACCCCAAUAUGAGAAUCAUAUAUGUGCGCAUACAUGGAUCCUCA
modifications: 2'-F all pyrimidines
B10: SEQ53 aptamer (ssRNA)
RNA: GGGAGAACUUCGACCAGAAGUUUGAAAGGAACCCAAAAACACAAAAUGUCUAUGUGCGCAUACAUGGAUCCUCA
modifications: 2'-F all pyrimidines
B11: SEQ47 aptamer (ssRNA)
RNA: GGGAGAACUUCGACCAGAAGAAGUUUGAAAAGAACCCAAAAUGAGCAAAAUAUGUGCGCAUACAUGGAUCCUCA
modifications: 2'-F all pyrimidines
B12: SEQ56 aptamer (ssRNA)
RNA: B8 RNA with A26G, C29A, U37C, C43U, A44G, A47C, A50C
modifications: 2'-F all pyrimidines
B13: SEQ37 aptamer (ssRNA)
RNA: B2 RNA with A28G, C39G, A40U, A41G, G42A, C43A, U50A
modifications: 2'-F pyrimidines
B14: SEQ54 aptamer (ssRNA)
RNA: GGGAGAACUUCGACCAGAAGUCGAAAGUGAAAGAAACUCCAACGAAAGCAUAUGUGCGCAUACAUGGAUCCUCA
modifications: 2'-F pyrimidines
B15: SEQ5 aptamer (ssRNA)
RNA: GGGAAGCCUGUGGAGCUGCUUAAACAAGCAAGUGAAAAAAACCACAGCAAAUGUAAAAAGCAUUGUCACCAACAACUGG
modifications: 2'-F pyrimidines
B16: SEQ30(6) (ssRNA)
RNA: GGGAUAAAAAUAGAGUUUGAUAAACACCUGUAUUAAAACCC
modifications: 2'-F pyrimidines and some purines, 2'-OMe at most purines including g1-g3 as printed in p174, 5' and 3' idT
B17: SEQ30(5) (ssRNA)
RNA: B16 RNA
modifications: 2'-F pyrimidines and some purines, 2'-OMe at many purines as printed in p174, 5' and 3' idT
B18: SEQ52 aptamer (ssRNA)
RNA: GGGAGAACUUCGACCAGAAGUUUGAAAGAAACCCAAAUAUACAAAACACUAUGUGCGCAUACAUGGAUCCUCA
modifications: 2'-F pyrimidines
B19: SEQ12 aptamer (ssRNA)
RNA: GGGAAGCCUGUGGAGCUGCGAAACAGUGAAACAAACCACAGACUGAGAAAGCAGUAACAGCAUUGUCACCAACAACUGG
modifications: 2'-F pyrimidines
B20: SEQ51 aptamer (ssRNA)
RNA: GGGAGAACUUCGACCAGAAGUUUGAAAGAAACCCAAAAAAACAACAUAUGAACUAUGUGCGCAUACAUGGAUCCUCA
modifications: 2'-F pyrimidines
B21: SEQ83 aptamer (ssRNA)
RNA: GGGAGAACUUCGACCAGAAGUUGAAGCUUGAAAAAAACCCAGGAUUAAACAGACAGUAUGUGCGCAUACAUGGAUCCUC
modifications: 2'-F pyrimidines
B22: SEQ67 aptamer (ssRNA)
RNA: GGGAGAACUUCGACCAGAAGUCGAUAACGAACAAAACUCCCAAAGGAAUAUAUGUGCGCAUACAUGGAUCCUCA
modifications: 2'-F pyrimidines
B23: SEQ38 aptamer (ssRNA)
RNA: GGGAGAACUUCGACCAGAAGAGAAUGAAACUCCACAAAGUACAUAAAACAUAUGUGCGCAUACAUGGAUCCUCA
modifications: 2'-F pyrimidines
B24: SEQ49 aptamer (ssRNA)
RNA: B8 RNA with A26G, C29A, U37G, A40G, A41G, A42U, C43A, A46G, A50G
modifications: 2'-F pyrimidines
B25: SEQ6 aptamer (ssRNA)
RNA: GGGAAGCCUGUGGAGCUGCAGGAUGAAAAAAACCCAAAAUUAAAUAAAAAAUAGACGGUGCAUUGUCACCAACAACUGG
modifications: 2'-F pyrimidines
B26: SEQ35(6) (ssRNA)
RNA: GGGAAGCCUGUGGAGCUGCAGGAUGAAAAAAACCCAAA
modifications: 2'-F pyrimidines and a23, 2'-OMe at g1 g2 a4 a5 g6 g10 g12 g13 a14 g15 g18 a20 g21 g22 a29-a32 a36-a38, 5' and 3' idT
B27: SEQ35(5) (ssRNA)
RNA: B26 RNA
modifications: 2'-F pyrimidines, 2'-OMe at g1 g2 a4 a5 g6 g10 g12 g13 a14 g15 g18 a20 g21 g22 a29-a32 a36-a38, 5' and 3' idT
B28: SEQ35(1) (ssRNA)
RNA: B26 RNA
modifications: 2'-F pyrimidines, 2'-OMe at a4 a5 g6 g10 g12 g13 a14 g15 g18 a20 g21 g22, 5' and 3' idT
B29: SEQ40 aptamer (ssRNA)
RNA: GGGAGAACUUCGACCAGAAGUUUGAAAAAAACCCAGGAAAAUGGAAGACGUAUGUGCGCAUACAUGGAUCCUCA
modifications: 2'-F pyrimidines
B30: SEQ64 aptamer (ssRNA)
RNA: B29 RNA with A28G, G36A, G37A, A39C, A41U, G43A, A45C, G47C, G50A
modifications: 2'-F pyrimidines
B31: SEQ42 aptamer (ssRNA)
RNA: B29 RNA with G36A, G37A, A39G, A41G, U42C, G43A, A45C, C49G, G50A
modifications: 2'-F pyrimidines
B32: SEQ57 aptamer (ssRNA)
RNA: GGGAGAACUUCGACCAGAAGUUUGAAAAAAACCCAAACACCGAAGCACAAAUAUGUGCGCAUACAUGGAUCCUCA
modifications: 2'-F pyrimidines
B33: SEQ39 aptamer (ssRNA)
RNA: GGGAGAACUUCGACCAGAAGUGUGAAAAGAACCCAAAUAAAACAACAAUGUAUGUGCGCAUACAUGGAUCCUCA
modifications: 2'-F pyrimidines

Positions count from the first letter of the chain named.

T1 sequence (P01138 122-241, one chain of several): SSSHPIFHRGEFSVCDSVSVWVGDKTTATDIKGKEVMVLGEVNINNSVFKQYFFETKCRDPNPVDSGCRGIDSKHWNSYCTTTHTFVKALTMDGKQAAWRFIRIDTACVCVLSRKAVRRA

One data set concerns the target T1, beta-NGF (nerve growth factor) (Homo sapiens, UniProt P01138 P01138:122-241). Briefly: SPR; blocks NGF-TrkA and NGF-P75. Conditions: tags: R&D Systems; chain copies: 2. The method, then:
As directed in BIAcore Company's protocol, Protein A (21181, PIERCE) was immobilized on a CM5 sensor chip. About 1100 RU of human Trk A-Fc fused with the Fc portion of IgG (175-TK, R&D systems) was immobilized thereon. As the analyte, a mixture of NGF (0.1 μM) and each aptamer (0.33 μM) was injected after being allowed to stand for 30 minutes. […] When NGF binds stronger to a receptor than an aptamer, the aptamer may be removed and NGF may bind to the receptor. […] Using the binding amount of NGF and NGF receptor without an aptamer as 100, the binding amount of NGF and NGF receptor added with an aptamer was determined as a correction value. Here, the binding amount is the RU value at the peak top of the sensorgram of BIAcore (RU value immediately after completion of NGF injection). […] A similar experiment was performed for another receptor P75 (p75-Fc; R&D systems).
Turning to B1, the activity was ≥ 60 % inhibition.
On the same count and under the same terms, for B2 the value was ≥ 60 % inhibition; for B3, ≥ 60 % inhibition; for B4, ≥ 60 % inhibition.
The same measure, in the same setting: then B5, with ≥ 60 % inhibition.
Same read-out and setting: for B6 the value was ≥ 60 % inhibition; for B7, ≥ 60 % inhibition.
For the molecule B8, the activity was ≥ 60 % inhibition.
Take B9: the activity is ≥ 60 % inhibition.
On to B10, for which the activity was ≥ 60 % inhibition.
Same read-out and setting: for B11 the value was ≥ 60 % inhibition.

Another data set addresses T1, beta-NGF (nerve growth factor). Briefly: cell_activity; neurite outgrowth, Neuroscreen-1 cells. The settings on record: tags: R&D Systems; chain copies: 2. How it is done:
(§1) The neurite outgrowth inhibitory activity of aptamer was evaluated by using Neuroscreen-1 cell, which is a subclone of PC-12 cells. 2500 Cells per well were cultured for one day in an RPMI-1640 medium containing 2.5% horse serum and 1.25% fetal bovine serum in a 96 well flat-bottom plate coated with collagen type IV. A mixed solution of NGF (final concentration 15 ng/ml or 1.1 nM) prereacted in a serum-free RPMI-1640 medium at room temperature or 37° C. for 30 min to 1 hr and an aptamer (final concentration 500-3 nM) was added. Two or three days later, the cytoplasm and nuclei were stained using Cellomics Neurite Outgrowth Kits (manufactured by Thermo Scientific), and neurite length per cell was measured by Cellomics ArrayScan VTI (manufactured by Thermo Scientific). With the neurite length per cell obtained by culturing the cell for 2 days with the addition of NGF alone as inhibitory activity 0%, and that of the cell obtained by NGF free culture as inhibitory activity 100%, the inhibitory activity of the aptamer was calculated from the neurite length per cell obtained by culturing with the addition of NGF and the aptamer in mixture. […] When the inhibitory activity was 0% or below, ‘0%’ is indicated. When it was not less than 100%, ‘100%’ is indicated. The 50% inhibitory concentration was determined from the concentrations at two, above and below points sandwiching the 50% inhibitory activity.
A word on the IC50: it is the concentration that inhibits the measured activity by half. A high value points to weaker potency. For the molecule B1, the IC50 was found to be 25.4 nM.
Regarding B2, the IC50 is < 10 nM.
On the same count and under the same terms, then B3, with 20.2 nM; and B4, with 46.4 nM; and B5, with 49.9 nM.
Regarding B6, the concentration for half-maximal inhibition (IC50) was < 10 nM.
On the same count and under the same terms, for B7 the value was 71.5 nM; for B8, 25.4 nM; for B12, 18.8 nM.
For the molecule B9, the IC50 is < 10 nM.
Take B10: the IC50 was < 10 nM.
In turn, B11 had an IC50 of 14.6 nM.

The target is the same in a further data set. Briefly: cell_activity; Neuroscreen-1 neurite outgrowth. The settings on record: tags: R&D Systems human NGF; chain copies: 2. The method, then: as §1
For the molecule B13, the midpoint of inhibition, the IC50, lay at 6.6 nM.
B14 displayed a 50% inhibitory concentration (IC50) of 7.6 nM.
As for B15, the IC50 stood at 21 nM. This IC50 lies about 2.8-fold higher than the previous one.
The same measure, in the same setting: for GGGAUAAAAAUAGAGUUUGAUAAACACCUGUAUUAAAACCC (ssRNA, 2'-F pyrimidines) [SEQ30 aptamer] the value was 57.6 nM.
Still for that read-out and setting: then B16, with 58.9 nM; and B17, with < 100 nM; and B18, with 6.7 nM.
In turn, UGUGGAGCUGCUUAAACAAGCAAGUGAAAAAAACCACA (ssRNA, 2'-F pyrimidines) [SEQ32 aptamer] displayed a 50% inhibitory concentration (IC50) of 84.7 nM. This IC50 lies about 13-fold higher than the previous one.
With B19, the IC50 came to 43.4 nM. This IC50 lies about 2-fold lower than the previous one.
The same measure, in the same setting: for B20 the value was 11.9 nM; for B21, 7.1 nM; for B22, 2.7 nM.
In turn, B23 displayed an IC50 of 7.3 nM.
B24 returned an IC50 of 4.6 nM.
On the same count and under the same terms, then B25, with 17.7 nM.
Still for that read-out and setting: for B26 the value was 73.5 nM; for B27, 79.8 nM.
Take B28: the midpoint of inhibition, the IC50, lay at 94.7 nM.
Consider B29, for which the IC50 amounted to 2.4 nM. This IC50 is about 39-fold lower than that of the molecule before.
In turn, B30 registered an IC50 of 4.8 nM.
Same read-out and setting: for B31 the value was 6.6 nM; for B32, 6.4 nM; for B33, 6.3 nM.
